Values belong to the binder of their own block, whether it stands above or below them. Numbered stars: 1 amine (or outer) side, 2 acyl side, 3 side chain; on linkers, the order of the positions; unused ones are H or OH. Bridge positions count the residues as written; N and C are the ends. Side chains are listed from the residue outwards. Ends that are not written are not given here. * marks the point of attachment. C20 diacid = O=C(O)CCCCCCCCCCCCCCCCCCC(=O)*; γGlu = O=C(O)[C@H](CCC(=O)[*:2])N[*:1]; AEEA = NCCOCCOCC(=O)O
Key:
[1] = biological target: T1, human amylin receptor (amylin 3(a) receptor: human calcitonin receptor co-expressed with RAMP-3) (human, UniProt P30988 25-474; O60896 24-148, limits assumed); test: cell-based or functional assay
T1 sequence (looked up) 1: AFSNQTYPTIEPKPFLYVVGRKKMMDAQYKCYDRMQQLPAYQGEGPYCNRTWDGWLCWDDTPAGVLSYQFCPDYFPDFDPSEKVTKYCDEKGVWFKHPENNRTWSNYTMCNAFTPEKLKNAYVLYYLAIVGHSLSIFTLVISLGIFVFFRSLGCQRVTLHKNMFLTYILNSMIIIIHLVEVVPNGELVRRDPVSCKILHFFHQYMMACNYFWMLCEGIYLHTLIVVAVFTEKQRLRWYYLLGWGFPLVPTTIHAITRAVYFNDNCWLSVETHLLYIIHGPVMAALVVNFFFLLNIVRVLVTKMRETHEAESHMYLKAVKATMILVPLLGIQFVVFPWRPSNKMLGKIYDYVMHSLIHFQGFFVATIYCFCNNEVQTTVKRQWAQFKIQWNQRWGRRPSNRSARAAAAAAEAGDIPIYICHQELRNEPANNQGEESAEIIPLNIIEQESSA
T1 sequence (looked up) 2: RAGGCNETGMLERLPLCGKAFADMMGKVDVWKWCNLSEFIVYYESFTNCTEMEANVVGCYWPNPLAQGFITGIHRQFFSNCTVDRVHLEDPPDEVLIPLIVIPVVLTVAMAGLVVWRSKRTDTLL

[2] = biological target: T2, human calcitonin receptor (human, UniProt P30988 25-474); test: cell-based or functional assay
T2 sequence (looked up): T1 sequence (looked up) 1

hAmylin-R funct. EC50 [1]: 0.047 nM
hCTR funct. EC50 [2]: 1.03 nM
B1: N^ε1-[2-[2-[2-[[(4S)-4-carboxy-4-(19-carboxynonadecanoylamino)butanoyl]amino]ethoxy]ethoxy]acetyl]-[Arg17,Pro21,Pro27,Pro34,His35]-h-amylin (peptide)
peptide: K([AEEA-γGlu-C20 diacid])CNTATCATQRLANFLRHSSPNFGAIPSSTNVGPHTY-NH2
modifications: disulfide 2-7; N-terminus assumed
SMILES: CC[C@H](C)[C@H](NC(=O)[C@H](C)NC(=O)CNC(=O)[C@H](Cc1ccccc1)NC(=O)[C@H](CC(N)=O)NC(=O)[C@@H]1CCCN1C(=O)[C@H](CO)NC(=O)[C@H](CO)NC(=O)[C@H](Cc1c[nH]cn1)NC(=O)[C@H](CCCNC(=N)N)NC(=O)[C@H](CC(C)C)NC(=O)[C@H](Cc1ccccc1)NC(=O)[C@H](CC(N)=O)NC(=O)[C@H](C)NC(=O)[C@H](CC(C)C)NC(=O)[C@H](CCCNC(=N)N)NC(=O)[C@H](CCC(N)=O)NC(=O)[C@@H](NC(=O)[C@H](C)NC(=O)[C@@H]1CSSC[C@H](NC(=O)[C@@H](N)CCCCNC(=O)COCCOCCNC(=O)CC[C@H](NC(=O)CCCCCCCCCCCCCCCCCCC(=O)O)C(=O)O)C(=O)N[C@@H](CC(N)=O)C(=O)N[C@@H]([C@@H](C)O)C(=O)N[C@@H](C)C(=O)N[C@@H]([C@@H](C)O)C(=O)N1)[C@@H](C)O)C(=O)N1CCC[C@H]1C(=O)N[C@@H](CO)C(=O)N[C@@H](CO)C(=O)N[C@H](C(=O)N[C@@H](CC(N)=O)C(=O)N[C@H](C(=O)NCC(=O)N1CCC[C@H]1C(=O)N[C@@H](Cc1c[nH]cn1)C(=O)N[C@H](C(=O)N[C@@H](Cc1ccc(O)cc1)C(N)=O)[C@@H](C)O)C(C)C)[C@@H](C)O
notes: also called compound 58

hAmylin-R funct. EC50 [1]: 0.056 nM
hCTR funct. EC50 [2]: 0.527 nM
B2: N^ε1-[2-[2-[2-[[(4S)-4-carboxy-4-(19-carboxynonadecanoylamino)butanoyl]amino]ethoxy]ethoxy]acetyl]-[Gly14,Arg17,Pro21,Pro27,Pro31]-h-amylin (peptide)
peptide: K([AEEA-γGlu-C20 diacid])CNTATCATQRLAGFLRHSSPNFGAIPSSTPVGSNTY-NH2
modifications: disulfide 2-7; N-terminus assumed
SMILES: CC[C@H](C)[C@H](NC(=O)[C@H](C)NC(=O)CNC(=O)[C@H](Cc1ccccc1)NC(=O)[C@H](CC(N)=O)NC(=O)[C@@H]1CCCN1C(=O)[C@H](CO)NC(=O)[C@H](CO)NC(=O)[C@H](Cc1c[nH]cn1)NC(=O)[C@H](CCCNC(=N)N)NC(=O)[C@H](CC(C)C)NC(=O)[C@H](Cc1ccccc1)NC(=O)CNC(=O)[C@H](C)NC(=O)[C@H](CC(C)C)NC(=O)[C@H](CCCNC(=N)N)NC(=O)[C@H](CCC(N)=O)NC(=O)[C@@H](NC(=O)[C@H](C)NC(=O)[C@@H]1CSSC[C@H](NC(=O)[C@@H](N)CCCCNC(=O)COCCOCCNC(=O)CC[C@H](NC(=O)CCCCCCCCCCCCCCCCCCC(=O)O)C(=O)O)C(=O)N[C@@H](CC(N)=O)C(=O)N[C@@H]([C@@H](C)O)C(=O)N[C@@H](C)C(=O)N[C@@H]([C@@H](C)O)C(=O)N1)[C@@H](C)O)C(=O)N1CCC[C@H]1C(=O)N[C@@H](CO)C(=O)N[C@@H](CO)C(=O)N[C@H](C(=O)N1CCC[C@H]1C(=O)N[C@H](C(=O)NCC(=O)N[C@@H](CO)C(=O)N[C@@H](CC(N)=O)C(=O)N[C@H](C(=O)N[C@@H](Cc1ccc(O)cc1)C(N)=O)[C@@H](C)O)C(C)C)[C@@H](C)O
notes: also called compound 71

From patent US20140087995A1 (published 2014)
